Results from paper PMC7855269 (FASEB journal : official publication of the Federation of …, 2020).

Molecular target: FLAG-WT CFTR (cystic fibrosis transmembrane conductance regulator) (UniProt P13569 1-1480)
Test: pull-down

Chain of FLAG-WT CFTR (cystic fibrosis transmembrane conductance regulator) (P13569 whole entry): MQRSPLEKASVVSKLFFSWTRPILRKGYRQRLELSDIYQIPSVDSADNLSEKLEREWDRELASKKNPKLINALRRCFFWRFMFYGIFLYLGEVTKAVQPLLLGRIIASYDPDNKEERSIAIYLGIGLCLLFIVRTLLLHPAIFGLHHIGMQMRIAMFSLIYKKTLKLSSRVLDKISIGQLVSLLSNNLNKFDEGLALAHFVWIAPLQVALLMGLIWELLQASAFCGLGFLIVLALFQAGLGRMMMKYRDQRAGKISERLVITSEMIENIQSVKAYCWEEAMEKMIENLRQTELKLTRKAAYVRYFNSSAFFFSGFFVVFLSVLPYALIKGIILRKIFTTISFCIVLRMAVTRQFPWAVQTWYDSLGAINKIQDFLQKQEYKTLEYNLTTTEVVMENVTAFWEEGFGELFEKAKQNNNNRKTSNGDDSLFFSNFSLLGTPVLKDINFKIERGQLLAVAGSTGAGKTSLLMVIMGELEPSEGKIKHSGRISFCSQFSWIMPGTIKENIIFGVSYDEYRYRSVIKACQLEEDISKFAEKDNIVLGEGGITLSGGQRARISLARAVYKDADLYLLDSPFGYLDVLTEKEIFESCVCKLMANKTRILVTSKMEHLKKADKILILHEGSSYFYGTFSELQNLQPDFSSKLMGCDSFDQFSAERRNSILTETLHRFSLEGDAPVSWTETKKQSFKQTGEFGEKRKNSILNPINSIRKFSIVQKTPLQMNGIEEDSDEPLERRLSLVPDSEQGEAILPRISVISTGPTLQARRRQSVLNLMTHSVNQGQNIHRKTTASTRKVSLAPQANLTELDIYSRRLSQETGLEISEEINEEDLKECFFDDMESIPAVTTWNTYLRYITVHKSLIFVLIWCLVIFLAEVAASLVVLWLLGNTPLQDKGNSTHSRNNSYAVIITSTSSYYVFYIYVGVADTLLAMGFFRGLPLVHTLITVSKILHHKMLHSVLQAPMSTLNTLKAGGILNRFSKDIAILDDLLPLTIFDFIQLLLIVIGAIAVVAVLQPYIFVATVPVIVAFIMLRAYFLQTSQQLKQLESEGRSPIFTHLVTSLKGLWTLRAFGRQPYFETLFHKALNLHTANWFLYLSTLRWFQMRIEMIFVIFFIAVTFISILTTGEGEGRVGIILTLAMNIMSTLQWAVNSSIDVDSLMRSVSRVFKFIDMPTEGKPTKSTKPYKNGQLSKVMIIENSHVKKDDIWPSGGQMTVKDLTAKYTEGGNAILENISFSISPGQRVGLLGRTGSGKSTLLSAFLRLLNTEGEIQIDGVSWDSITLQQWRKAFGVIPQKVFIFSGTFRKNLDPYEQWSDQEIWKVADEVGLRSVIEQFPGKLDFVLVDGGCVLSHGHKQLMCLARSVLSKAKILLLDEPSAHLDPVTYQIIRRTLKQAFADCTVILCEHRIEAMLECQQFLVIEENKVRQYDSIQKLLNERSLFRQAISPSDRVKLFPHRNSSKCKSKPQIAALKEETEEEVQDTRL

binding result: binds
B1: GST-His-S-Stx17ΔC (Stx17 1–228) (domain or fragment, UniProt P56962 1-228, looked up)
chain: MSEDEEKVKLRRLEPAIQKFIKIVIPTDLERLRKHQINIEKYQRCRIWDKLHEEHINAGRTVQQLRSNIREIEKLCLKVRKDDLVLLKRMIDPVKEEASAATAEFLQLHLESVEELKKQFNDEETLLQPPLTRSMTVGGAFHTTEAEASSQSLTQIYALPEIPQDQNAAESWETLEADLIELSQLVTDFSLLVNSQQEKIDSIADHVNSAAVNVEEGTKNLGKAAKYK
